Laboratory results: patent publication US8580556B2, “Sulfonylurea-responsive repressor proteins” (E. I. du Pont de Nemours and Company, priority 2008, dated 2013)
Substitutions are numbered along the chain they refer to.

Tested on: tetA promoter (PtetA)-lacZ reporter in E. coli KM3
Type: cell-based
Conditions: for relative β-galactosidase activity, inducer atc / relative β-galactosidase activity, inducer Ci / relative β-galactosidase activity, inducer Cs / relative β-galactosidase activity, inducer Es / relative β-galactosidase activity, inducer Ms / relative β-galactosidase activity, inducer Ns / relative β-galactosidase activity, inducer Blank / relative β-galactosidase activity, inducer Rs / relative β-galactosidase activity, inducer Sm / relative β-galactosidase activity, inducer Ts / relative β-galactosidase activity, inducer Tb: Table 6, reverse repressor hits; for relative β-galactosidase activity, inducer atc: anhydrotetracycline; for relative β-galactosidase activity, inducer Ci: chlorimuron; for relative β-galactosidase activity, inducer Ci / relative β-galactosidase activity, inducer Cs / relative β-galactosidase activity, inducer Es / relative β-galactosidase activity, inducer Ms / relative β-galactosidase activity, inducer Ns / relative β-galactosidase activity, inducer Rs / relative β-galactosidase activity, inducer Sm / relative β-galactosidase activity, inducer Ts / relative β-galactosidase activity, inducer Tb: same plate assay format as Table 4; for relative β-galactosidase activity, inducer Cs: chlorsulfuron; for relative β-galactosidase activity, inducer Es: ethametsulfuron; for relative β-galactosidase activity, inducer Ms: metsulfuron; for relative β-galactosidase activity, inducer Ns: nicosulfuron; for relative β-galactosidase activity, inducer Blank / Control 84 hr (colony color intensity, background activity without inducer): no inducer; for relative β-galactosidase activity, inducer Rs: rimsulfuron; for relative β-galactosidase activity, inducer Sm: sulfometuron; for relative β-galactosidase activity, inducer Ts: thifensulfuron; for relative β-galactosidase activity, inducer Tb: tribenuron; for 0.2 ppm 48 hr (colony color intensity, induction by chlorsulfuron) / Control 84 hr (colony color intensity, background activity without inducer): M9 assay plates, colony color intensity by ImageJ; for 0.2 ppm 48 hr (colony color intensity, induction by chlorsulfuron): 0.2 ppm chlorsulfuron as inducer, 48 hr at 30° C.; for Control 84 hr (colony color intensity, background activity without inducer): 84 hr at 30° C.

B1: L1-25: library L1 reverse repressor hit (SEQ ID NO: 1206-1213) (protein)
chain: MGSRLDKSKVINSALELLNEVGIEGLTTRKLAQKLGVEQPTLYWHVKNKRALLDALAIEMLDRHATHFCPLEGESWQDFLRNTAKSMRCALLSHRDGAKVLLGTATTEKQYETLENLLAFLYQQGFSLENALYAWQAVWRFTLGCVLIDQETQVAKEERETPTTDSMPPLLRQAVELKDHQGAEPAFLFGLELIICGLEKQLKCETGS
modifications: rSuR L1-25
relative β-galactosidase activity, inducer atc: 1.22
relative β-galactosidase activity, inducer Ci: 0.11
relative β-galactosidase activity, inducer Cs: 0.28
relative β-galactosidase activity, inducer Es: 0.13
relative β-galactosidase activity, inducer Ms: 0.32
relative β-galactosidase activity, inducer Ns: 1.21
relative β-galactosidase activity, inducer Blank: 1.17
relative β-galactosidase activity, inducer Rs: 1.08
relative β-galactosidase activity, inducer Sm: 0.63
relative β-galactosidase activity, inducer Ts: 0.64
relative β-galactosidase activity, inducer Tb: 1.72

B2: L6-1B03 (protein)
chain: MGSRLDKSKVINSALELLNEVGIEGLTTRKLAQKLGVEQPTLYWHVKNKRALLDALAIEMMDRHATHICPLEGESWQDFLRNNAKSMRCALLSHRDGAKVCLGTRWTEQQYEAAENMLAFLCQQGFSLENALYAVSAVRVFTLGCVLFDQESQVAKEERETPTTASMPPLLRQAWELKDHQGAEPAFLFGLELIICGLEKQLKCESGS
modifications: Sulfonylurea responsive repressor L6-1B03
0.2 ppm 48 hr/Control 84 hr: 4.6
0.2 ppm 48 hr (colony color intensity, induction by chlorsulfuron): 30.0
Control 84 hr (colony color intensity, background activity without inducer): 6.6

B3: L6-5H12 (protein)
chain: B2 chain with I68Y, Q109K, A113T, M117Q, V135M, S152L, L171V
modifications: Sulfonylurea responsive repressor L6-5H12
0.2 ppm 48 hr/Control 84 hr: 4.2
Control 84 hr (colony color intensity, background activity without inducer): 5.7

B4: L6-6F07 (protein)
chain: B2 chain with I68L, N83T, A113S, V135M
modifications: Sulfonylurea responsive repressor L6-6F07
0.2 ppm 48 hr/Control 84 hr: 2.3
Control 84 hr (colony color intensity, background activity without inducer): 5.1

B5: L6-5H06 (protein)
chain: B2 chain with A65Q, Q109K, A113T, S152L, L171V
modifications: Sulfonylurea responsive repressor L6-5H06
0.2 ppm 48 hr/Control 84 hr: 2.7
Control 84 hr (colony color intensity, background activity without inducer): 5.1

B6: L6-2D07 (protein)
chain: B2 chain with A65Q, I68F, N83T, A113T, V135M, L171V
modifications: Sulfonylurea responsive repressor L6-2D07
0.2 ppm 48 hr/Control 84 hr: 3.4
0.2 ppm 48 hr (colony color intensity, induction by chlorsulfuron): 20.0
Control 84 hr (colony color intensity, background activity without inducer): 5.8

B7: L6-2C09 (protein)
chain: B2 chain with A65Q, I68Y, N83T, Q110L, A113T, M117Q, V135M, S152L
modifications: Sulfonylurea responsive repressor L6-2C09
0.2 ppm 48 hr/Control 84 hr: 2.6
Control 84 hr (colony color intensity, background activity without inducer): 5.2

B8: L6-5F05 (protein)
chain: B2 chain with M117Q, S152L
modifications: Sulfonylurea responsive repressor L6-5F05
0.2 ppm 48 hr/Control 84 hr: 4.1
0.2 ppm 48 hr (colony color intensity, induction by chlorsulfuron): 22.0
Control 84 hr (colony color intensity, background activity without inducer): 5.4

B9: L6-3H02: SuR polypeptide, SEQ ID NO: 94 (protein)
chain: B2 chain with I68Y, N83T, Q110H, A113S, L171V, D179V
modifications: Sulfonylurea responsive repressor L6-3H02
0.2 ppm 48 hr/Control 84 hr: 2.8
Control 84 hr (colony color intensity, background activity without inducer): 5.6

B10: L6-4D10 (protein)
chain: B2 chain with A65Q, I68Y, Q109K, A113S
modifications: Sulfonylurea responsive repressor L6-4D10
0.2 ppm 48 hr/Control 84 hr: 3.7
Control 84 hr (colony color intensity, background activity without inducer): 5.0

B11: L6-5G06 (protein)
chain: B2 chain with A65Q, I68Y, A113T, M117Q, S152L, A174G
modifications: Sulfonylurea responsive repressor L6-5G06
0.2 ppm 48 hr/Control 84 hr: 4.9
Control 84 hr (colony color intensity, background activity without inducer): 7.0

B12: L1-33: library L1 reverse repressor hit (SEQ ID NO: 1206-1213) (protein)
chain: MGSRLDKSKVINSALELLNEVGIEGLTTRKLAQKLGVEQPTLYWHVKNKRALLDALAIEMLDRHATHFCPLEGESWQDFLRNNAKSMRCALLSHRDGAKVQLGTAATEKQYETLENKLAFLCQQGFSLENALYAHSAVTQFTLGCVLRDQEGQVAKEERETPTTDSMPPLLRQARELRDHQGAEPAFLFGLELIICGLEKQLKCESGS
modifications: rSuR L1-33
relative β-galactosidase activity, inducer atc: 8.25
relative β-galactosidase activity, inducer Ci: 0.76
relative β-galactosidase activity, inducer Cs: 3.74
relative β-galactosidase activity, inducer Es: 2.11
relative β-galactosidase activity, inducer Ms: 4.29
relative β-galactosidase activity, inducer Ns: 5.34
relative β-galactosidase activity, inducer Blank: 7.59
relative β-galactosidase activity, inducer Rs: 10.32
relative β-galactosidase activity, inducer Sm: 5.02
relative β-galactosidase activity, inducer Ts: 5.51
relative β-galactosidase activity, inducer Tb: 4.71

B13: L1-34: library L1 reverse repressor hit (SEQ ID NO: 1206-1213) (protein)
chain: MGSRLDKSKVINSALELLNEVGIEGLTTRKLAQKLGVEQPTLYWHVKNKRALLDALAIEMADRHNTHFCPLEGESWQDFLRNAARSMRCALLSHRDGAKVYLGTARTEKQYETTENVLAFLCQQGFSLENALYAVRAVPRFTLGCVLLDQERQVAKEERETPTTDSMPPLLRQARELTDHQGAEPAFLFGLELIICGLEKQLKCESGS
modifications: rSuR L1-34
relative β-galactosidase activity, inducer atc: 3.68
relative β-galactosidase activity, inducer Ci: 0.43
relative β-galactosidase activity, inducer Cs: 0.85
relative β-galactosidase activity, inducer Es: 1.33
relative β-galactosidase activity, inducer Ms: 1.47
relative β-galactosidase activity, inducer Ns: 2.91
relative β-galactosidase activity, inducer Blank: 2.37
relative β-galactosidase activity, inducer Rs: 2.30
relative β-galactosidase activity, inducer Sm: 2.00
relative β-galactosidase activity, inducer Ts: 2.97
relative β-galactosidase activity, inducer Tb: 2.26
